Measurements taken from patent US20120316071A1 (published 2012).
Residue numbers refer to the chain shown, from its start. Names and notes keep the numbering of the source.

B1: Fab VH5-51_IGHD5-18*01>3_IGHJ4*01 G100K/G104T (H:KT) & V3-4_IGLJ1*01 (Fab, V domains shown)
VH: EVQLVQSGAEVKKPGESLKISCKGSGYSFTSYWIGWVRQMPGKGLEWMGIIYPGDSDTRYSPSFQGQVTISADKSISTAYLQWSSLKASDTAMYYCARRKYSYTYDYFDYWGQGTLVTVSS
VL: QTVVTQEPSFSVSPGGTVTLTCGLSSGSVSTSYYPSWYQQTPGQAPRTLIYSTNTRSSGVPDRFSGSILGNKAALTITGAQADDESDYYCVLYMGSGISYVFGTGTKVTVL
notes: Fab expressed in E. coli; Plasmid A adds CH1 with His6 and Flag tags to the heavy chain; Plasmid E adds lambda CL to the light chain; also called H:KT & L:wt; KT double mutant
B2: Fab VH5-51_IGHD5-18*01>3_IGHJ4*01 G100K/G104T G24A/S28R/G35V (H:KT ARV) & V3-4_IGLJ1*01 (Fab, V domains shown)
VH: B1 VH with G24A, S28R, G35V
VL: B1 VL
notes: Fab expressed in E. coli; Plasmid A adds CH1 with His6 and Flag tags to the heavy chain; Plasmid E adds lambda CL to the light chain; also called H:KT ARV & L:wt; G100K/G104T G24A/S28R/G35V & parent
B3: Fab VH5-51_IGHD5-18*01>3_IGHJ4*01 G100K/G104T S28R (H:KT S28R) & V3-4_IGLJ1*01 (Fab, V domains shown)
VH: B1 VH with S28R
VL: B1 VL
notes: Fab expressed in E. coli; Plasmid A adds CH1 with His6 and Flag tags to the heavy chain; Plasmid E adds lambda CL to the light chain; also called H:KT S28R & L:wt; G100K/G104T S28R & parent
B4: Fab VH5-51_IGHD5-18*01>3_IGHJ4*01 G100K/G104T (H:KT) & V3-4_IGLJ1*01 M94R/S96M (L:RM) (Fab, V domains shown)
VH: B1 VH
VL: B1 VL with M94R, S96M
notes: Fab expressed in E. coli; Plasmid A adds CH1 with His6 and Flag tags to the heavy chain; Plasmid E adds lambda CL to the light chain; also called H:KT & L:RM; G100K/G104T & M94R/S96M
B5: Fab VH5-51_IGHD5-18*01>3_IGHJ4*01 G100K/G104T G24T/S28R/G35V (H:KT TRV) & V3-4_IGLJ1*01 (Fab, V domains shown)
VH: B1 VH with G24T, S28R, G35V
VL: B1 VL
notes: Fab expressed in E. coli; Plasmid A adds CH1 with His6 and Flag tags to the heavy chain; Plasmid E adds lambda CL to the light chain; also called H:KT TRV & L:wt; G100K/G104T G24T/S28R/G35V & parent
B6: Fab VH5-51_IGHD5-18*01>3_IGHJ4*01 G100K/G104T G24L/S28R/G35V (H:KT LRV) & V3-4_IGLJ1*01 (Fab, V domains shown)
VH: B1 VH with G24L, S28R, G35V
VL: B1 VL
notes: Fab expressed in E. coli; Plasmid A adds CH1 with His6 and Flag tags to the heavy chain; Plasmid E adds lambda CL to the light chain; also called H:KT LRV & L:wt; G100K/G104T G24L/S28R/G35V & parent
B7: Fab VH5-51_IGHD5-18*01>3_IGHJ4*01 G100K/G104T G24T/S28R/G35V (H:KT TRV) & V3-4_IGLJ1*01 M94R/S96M (L:RM) (Fab, V domains shown)
VH: B1 VH with G24T, S28R, G35V
VL: B1 VL with M94R, S96M
notes: Fab expressed in E. coli; Plasmid A adds CH1 with His6 and Flag tags to the heavy chain; Plasmid E adds lambda CL to the light chain; also called H:KT TRV & L:RM; G100K/G104T G24T/S28R/G35V & M94R/S96M
B8: Fab VH5-51_IGHD5-18*01>3_IGHJ4*01 G100K/G104T (H:KT) & V3-4_IGLJ1*01 (wildtype light chain) (Fab, V domains shown)
VH: B1 VH
VL: B1 VL
notes: Fab made in E. coli; VH was cloned into Plasmid A (CH1, His6 and Flag tags) and lambda VL into Plasmid E (lambda CL); also called H:KT & L:wt; KT double mutant
B9: Fab VH5-51_IGHD5-18*01>3_IGHJ4*01 G100K/G104T (H:KT) & V3-4_IGLJ1*01 S52A (Fab, V domains shown)
VH: B1 VH
VL: B1 VL with S52A
notes: Fab (CH1 with His6/Flag tags from Plasmid A, lambda CL from Plasmid E); also called G100K/G104T & S52A
B10: Fab VH5-51_IGHD5-18*01>3_IGHJ4*01 G100K/G104T (H:KT) & V3-4_IGLJ1*01 T55A (Fab, V domains shown)
VH: B1 VH
VL: B1 VL with T55A
notes: Fab (CH1 with His6/Flag tags from Plasmid A, lambda CL from Plasmid E); also called G100K/G104T & T55A
B11: Fab VH5-51_IGHD5-18*01>3_IGHJ4*01 G100K/G104T (H:KT) & V3-4_IGLJ1*01 S58A (Fab, V domains shown)
VH: B1 VH
VL: B1 VL with S58A
notes: Fab (CH1 with His6/Flag tags from Plasmid A, lambda CL from Plasmid E); also called G100K/G104T & S58A
B12: Fab VH5-51_IGHD5-18*01>3_IGHJ4*01 G100K/G104T (H:KT) & V3-4_IGLJ1*01 N54A (Fab, V domains shown)
VH: B1 VH
VL: B1 VL with N54A
notes: Fab (CH1 with His6/Flag tags from Plasmid A, lambda CL from Plasmid E); also called G100K/G104T & N54A
B13: Fab VH5-51_IGHD5-18*01>3_IGHJ4*01 G100K/G104T (H:KT) & V3-4_IGLJ1*01 S57A (Fab, V domains shown)
VH: B1 VH
VL: B1 VL with S57A
notes: Fab (CH1 with His6/Flag tags from Plasmid A, lambda CL from Plasmid E); also called G100K/G104T & S57A

What follows are binders tested against T1, Recombinant Human DLL4 (R&D Systems Cat#1506-D4/CF) (human, UniProt Q9NR61 27-524) (assay: ELISA, DLL4 coated on plate, Fab at 0.74 nM).
T1 construct: Bought recombinant protein; also called delta-like protein 4; Delta-like 4

Point of comparison: B7, ELISA signal 0.006. Against it:
- B1 — higher, 0.019
- B2 — higher, 0.008
- B3 — lower, 0
- B4 — lower, 0
- B5 — lower, 0.002
- B6 — the same, 0.006

The binders below were run against T2, Recombinant Human DLL4 (delta-like protein 4) (human, UniProt Q9NR61 27-524) (assay: ECL (MSD) multispot binding assay, Fab on immobilised recombinant human DLL4).
T2 construct: also called rHuman DLL4; Delta-like 4

Point of comparison: B8, “ECL signal” value 9360. Against it:
- B9 — higher, 15200
- B10 — higher, 12700
- B11 — higher, 12600
- B12 — higher, 12900
- B13 — higher, 12600

Each binder was assayed against T1, Recombinant Human DLL4 (R&D Systems …) (assay: ELISA, DLL4 coated on plate, Fab at 20 nM).

Point of comparison: B5, ELISA signal 0.054. Against it:
- B1 — lower, 0.018
- B2 — the same, 0.054
- B3 — lower, 0.009
- B4 — higher, 0.087
- B6 — lower, 0.027
- B7 — higher, 0.122

The binders below were run against T1, Recombinant Human DLL4 (R&D Systems …) (assay: ELISA, DLL4 coated on plate, Fab at 6.67 nM).

Point of comparison: B4, ELISA signal 0.023. Against it:
- B1 — higher, 0.042
- B2 — higher, 0.025
- B3 — lower, 0.003
- B5 — the same, 0.023
- B6 — lower, 0.005
- B7 — higher, 0.062

What follows are binders tested against T1, Recombinant Human DLL4 (R&D Systems …) (assay: ELISA, DLL4 coated on plate, Fab at 2.22 nM).

Point of comparison: B5, ELISA signal 0. Against it:
- B1 — higher, 0.014
- B2 — higher, 0.002
- B3 — the same, 0
- B4 — higher, 0.007
- B6 — the same, 0
- B7 — higher, 0.028

The binders below were run against T1, Recombinant Human DLL4 (R&D Systems …) (assay: ECL (Meso Scale Discovery) multispot binding assay, DLL4 immobilised, Fab at 100 nM).

In the case of B1, the “ECL signal” value is reported as 9360.
